Experimental data from the DeepSol protein solubility set.

Test: soluble on expression in E. coli; label from the status in PepcDB or PDB records

Sequence	soluble on expression in E. coli
MVHSNGAITSTILKARHADVVRKTSLHHANDLTLIDLVLNVQRLLALPSDANFVLKYKDEEGDLVTLAEDSDLLLALHTSGATLDVTVVVDSRAREAVHDVQKQVEQIKLDVGKLLGALSALDVAQIAEQSNTSVANLSAPKQSHHDNIVFQKSFEAAPPSPVPSEKAELPATIQPSVHEQFNHRPAHVEEEIPLENHYAPPPHQQIPDDLNTSFSSQPPPPIEQFGAIPPPNATIPSFPTSNAASPPVQEFAPPPPQQQQQQFQAPPPPMASHSSISSTPVQQQGFAPPQQFGGPPPSGPPSEYGGYAPPQQQQQQFGAPPPQGAPQQGFGAPPQGPPQGGPPQGSFGAPPPQQFHAPSPQSFGGPPPPVSSAPGNFAPPPQSGPPGAFAPPPSAFGAPQGPGGPGGYGPPPPGGPGAPGSYGPPQGGPGGFGPPPPGGPGAYGPPPTGFPPVGAPPPGAAGAPGGNPFARGPSATGYRQSPYQQ	not soluble
QVSDEDVMLMIRQGAKKGVFESVEYEMISRIFRMSDKRASALMTPRNEIEWLDLERPDEELVARIKASGRSRFPVAKGSLDELQGVVRSLDLVNFSLSSKGSIREAIRASMKPPLFVPESVPAFHVLELFKKNRAHMALVIDEHGSVQGAITLTDVLESIVGDVPADDMEGD	not soluble
MIDDIRYLIVFAKIAETGSVSGGAEALGLSAATASLHLSRLERNLGRALLYRNSRKLSLTQDGTQLLDTARSMLELYEKGFIEFRQRAVSTRNSLRISMPAVFVNGDFTRHLAAFIEEHPDLDLGIACDDSRHDIIGDGIDIAFRIGDLPDSSLKARHLFLLPRQVVAAPAFLARHAPLEHPRDLQRLEWIGLGMRPDSRLFRHARDDEEVRVDYTPRVRVDSVEASCRLARLGVGLAAPPTYLSDEPIRRGELRAVLPEWRLEPLKVYAVWPPNVPASSIAYTLINRLYEAFNPG	not soluble
MSLSKTLSMLALLPFAAQVFAAPAEFWYSHGGATGSAIADLCRSFNAQREDGDRLHCIRQGSYEQTLQKTVAAYRAGIGPALVEIYDVATPDMLLGGATLPVEAIMAGHQRAYSDDTFLPALRRYYSDDHGALAAQPFAASTAVLYTHRNALAAAGISEPPATWEAFATALRALKKNGHACPVVSEFSPWIWLEQTSAAQGTEVAVRAAGTERYQFDKGAHLRLMNDLAQWTAEGLVVHEDSTRSGQQALAFATDDCAMLIDSTGAWNIVHSTLKSDIDVTALPIYANTQRRTNAPGGSSLWVMRGHAARDYRLVSEFLAFVLQPDNQLVFSARTGYLPVTQAAAARLQSAGREPSAVMVGLAALHDIDGQPSKPLRCGFITLMRLVWSQEMENALAGRQSVEHALRQTTLRANELLSLFQQMHQAQASNESDGATEGHHHHHH	soluble
MATNRSRRLRKKLCVDEFQELGFELNFHYKEGVDADAVNAFMLRFIDQAIEANELTYGGCDEFGFVCLARRGSVNEEQRALIEAWLKQQPELASVEVGALVDAWYPEQPVLPKL	not soluble
MMPKVYGSLVDNETRCTHYHTFLDVIAIKFKCCNKYYPCYQCHEEHETHPIKRWSEQEFDEKAIMCGVCKHEMSIQDYMMTELCPKCQAHFNSRCKFHYHLYFELLEHHHHHH	not soluble
MLQKLIQILRRNEYVKNVYKNTVSNFIETSIPEITPFNARTSSIKGKRLNLLVPSINQEHMFGGISTALKLFEQFDNKKFKKRIILTDATPNPKDLQSFKSFKYVMPEEDKDFALQIVPFNDRYNRTIPVAKHDIFIATAWWTAYAAQRIVSWQSDTYGIPPNKILYIIQDFEPGFYQWSSQYVLAESTYKYRGPQIAVFNSELLKQYFNNKGYNFTDEYFFQPKINTTLKNYINDKRQKEKIILVYGRPSVKRNAFTLIVEALKIFVQKYDRSNEWKIISVGEKHKDIALGKGIHLNSLGKLTLEDYADLLKRSSIGISLMISPHPSYPPLEMAHFGLRVITNKYENKDLSNWHSNIVSLEQLNPENIAETLVELCMSFNNRDVDKKESSNMMFYINEFNEFSFIKEIEEKL	soluble
MITDEHIELFLAQAHRYGDAKLMLCSSGNLSWRIGEEALISGTGSWVPTLAKEKVSICNIASGTPTNGVKPSMESTFHLGVLRERPDVNVVLHFQSEYATAISCMKNKPTNFNVTAEIPCHVGSEIPVIPYYRPGSPELAKAVVEAMLKHNSVLLTNHGQVVCGKDFDQVYERATFFEMACRIIVQSGGDYSVLTPEEIEDLEIYVLGKKTK	soluble
MSLDSRPKLPQTLSRGWGDQLIWTQTYEEALYKSKTSNKPLMIIHHLDECPHSQALKKVFAENKEIQKLAEQFVLLNLVYETTDKHLSPDGQYVPRIMFVDPSLTVRADITGRYSNRLYAYEPADTALLLDNMKKALKLLKTELEGHHHHHH	soluble
DRCYNCGGLDHHAKECKLPPQPKKCHFCQSISHMVASCPLKAQQGPSAQG	soluble
MFRVTCIDLENGEFALYINGHYLSSEDGSGEKLYLGDILERLSRLPGVTTETVERPVPDSDEWSWNDVADSVFPACITLSRNMTVAAFKQRLSRFPDDALCCGTFWLASDFLALDSSLTEDDIDAAMELAQHCHDANDGFNWSHLQWAIDEVKRGG	not soluble
MSDLSAQLSAFKNKIKSGPSVIVPRKATFTQSPSSPLSSSTTTTTSKNDANVKKRSTTDSVTRVLKKQKANMGEMTGSHLSTQLHLAVEYIKEHDQPISVEKLQNYLSFDISHTLLPLLNEIDRVKYDESKGTLEYVSLHNIRSSDDLLEFLRRQTTFKGTSVKELKDGWAGCVAAIDELESQGKILVLRNKKENAPRLVWANNGGELGYIDTEFKDMWDQVKLPEPDVLYQKLLDQGLKPTGADPNLIKKQPQQKEKKQKKARRGKITNTHMKGILKDYSQLV	soluble
MSLEDTTITFWHAMNGVQEEALTKLTKDFMKENPKIKVELQNQSAYPDLQAKINSTLTSPKDLPTITQAYPGWLWNAAQDEMLVDLKPYMDDDTIGWKDAEPIREVLLDGAKIDGKQYGIPFNKSTEMLFYNADLLKEYGVEVPKTLEELKEASKTIYEKSNKEVVGAGFDSLNNYYAIGMKNKGVDFNKDLDLTSKDSQEVVDYYRDGIEAGYFRTAGSDKYLSGPFANKKVAMFVGSIAGAGFVQKDAEAGGYEYGVAPRPEKINLQQGTDIYMFDSATPEQRTAAFEFMKFLATPDSQLYWAQQTGYMPILESVLHSDEYKNSKTTKVPAQLENAVKDLFAIPVEENADSAYNEMRTIMESIFASSNKDTRKLLKDATSQFEQAWNQEGHHHHHH	soluble
TVEFRDLQGQRMIAVAENVASTPVVRDQLSDRSVERVLAPEVDRAVNLSGATLAEIVAPNGAVTVSSDPTRLGVPAELGASDVMTGRAWSGDVDVDGRRAIVGHVPILSATGDVLAVVTVSDDYPSVWDLLSSAG	not soluble
MGSDKIHHHHHHMKKAHVIVVGNEKGGTGKSTISMHLIVSLLDKGLSVGSIDIDARQATLSRYIGNRAARQDRAELNLPIPEHIPIPPSGDAQADCARLDEVFKDFAARHDVVVIDTPGSDHPMSRLGHSFADTLVTPLNDSLVDLDVLALVEPGTMKIRRPSHYAEMVWETKKTRAMRGEKAVVDWIVLRNRLSNLDARNKRDMEKLLAELSKRVGFRVIPGLGERVIYRSMFLEGLTLVDLKKKPLGFDFNMSHVAARQELRTLVDAIGLGLPATA	not soluble
MNKVSVVLPTYNCGTYVGVAVESVLQQTYSNYELIIVNDGSTDETDQALAPYLCNNGHIRYIKQGNKGHAGARNTGIRAATGDVIAFIDSDDKWLPEKLGEQVQAMEEDPEVGLVHCNVYGFGENQEVQVRGPLLTQEQLQGYSGYIFDNLYFRKIIITTTTVMIRKSCIDDVGMFDENMTRYGSEDRELFLRILWKYKARYVNKPLAMYRNRSDSEGQNYERMIKGQEYVYEKITSLYGLPQSSKRAVMSKMYQEWAREFYAKGRFADGLTNQVKAIRANPIDMNAYFALKRYARFLFSRATLEHHHHHH	not soluble
MDAGDASRLGESLDAVSAAFQSRVMELQELVLARNMYPATAIPDLAAVDVSLTAMEAQLQAVRRRLQEEREAFPKAKKLVQQSLKQQRRLQLMLANMPTGMREDVFATPLEHNSSMMFPESLNFSSAVPEVRDHDLKIKEEPTAPPKKKGRGPAPRWYISTEELDSLSSYMRGRLTLEKVNIAINEVASYADGNAHLVACPKKKLSEDTWEKALELRDIAARESVKGRHFFLETDIKGPGLKLDTTGKAILTVRASTIMLYMLPLKLPYWIE	soluble
MSLAPLDLDKYVEIARLCKYLPENDLKRLCDYVCDLLLEESNVQPVSTPVTVCGDIHGQFYDLCELFRTGGQVPDTNYIFMGDFVDRGYYSLETFTYLLALKAKWPDRITLLRGNHESRQITQVYGFYDECQTKYGNANAWRYCTKVFDMLTVAALIDEQILCVHGGLSPDIKTLDQIRTIERNQEIPHKGAFCDLVWSDPEDVDTWAISPRGAGWLFGAKVTNEFVHINNLKLICRAHQLVHEGYKFMFDEKLVTVWSAPNYCYRCGNIASIMVFKDVNTREPKLFRAVPDSERVIPPRTTTPYFLEGHHHHHH	not soluble
MKITVLGCGALGQLWLTALCKQGHEVQGWLRVPQPYCSVNLVETDGSIFNESLTANDPDFLATSDLLLVTLKAWQVSDAVKSLASTLPVTTPILLIHNGMGTIEELQNIQQPLLMGTTTHAARRDGNVIIHVANGITHIGPARQQDGDYSYLADILQTVLPDVAWHNNIRAELWRKLAVNCVINPLTAIWNCPNGELRHHPQEIMQICEEVAAVIEREGHHTSAEDLRDYVMQVIDATAENISSMLQDIRALRHTEIDYINGFLLRRARAHGIAVPENTRLFEMVKRKESEYERIGTGLPRPWLEHHHHHH	not soluble
GPGSMAASSVASVSATKASALAAKKAEKDAHDSRSLFEEYEQLSKDIKNIQLKTMICRTETHQLMKEESAAKQEVKRIQAVPLVLGNFVEVVDSVRGIVSGTSGSQYFVRILSTLNKEHLKPNVSVGLHKSSNACVQLLPSETDATITLLNSSDRPDVTYSDVGGLDMQKQEIREAVELPLTHAGLYEQIGIDPPRGVLLYGPPGTGKTMLVKAVARHTKASFIRVVGSEFVQKFLGEGPRKVRDVFRLARENAPSIIFIDEVDSIATKRFDAQTGADREVQRVLVELLTQMDGFDQTTNVKVIMATNRWDTLDPALLRPGRLDRKIEFPYPDRRQKRLVFQVCTSKMNLSPEVDLEDYVTRPEKLSGADIQSICQEAGMLAVRKNRYVILPRDIENAYRTVIKKTGDETYDFYS	not soluble
MPVVSNTELSMRRQEILEGARRCFAEHGYEGATVRRLEETVGKSRGAIFHHFSDKENLFLALAREDAARMAEVVAENGLVEVMRDMLAHPERHDWLATRLEITKMLRTDPSFRNRWIEHQRVLDDAVLERLQRNAHLGRMRDDVPIDVLHTYLETVLDGFISRLASGGDTDNLERVLDLVEESVRSSQPS	not soluble
MGSDKIHHHHHHMMPVRQTLSKPDIQLSYLEWNQGQEPLLLLHGLGDHALVWSSLGDYLAADYHIVAPDMRGHGESTKPERDYTFESAIADLEALMDHLGWTSAQIVSHSWTGKLAAIWARQNRKRLRSIILVDPIFIWKMPSLLRLTFPMLYRFLPFLKSMGPFTSHEEAEQQARQLKQYQGWSSLQEQVFQAGIEQKPDGSWGSKFTIAARDEIFEAVMQVPGFTIPLDIQALFIQPEQGLNRQDWQIQPYKTYLKKLRICQVPGNHWPFLTQPETFNQTVAAFLAEHR	not soluble
AIAGGAVSAGQDNDELIDNLKEAQYIRTEAVEKAFRAIDRADYYLEEFKQNAYRDLAWKHGNIHLSAPCIYSEVMEALDLQPGLSFLNLGSGTGYLNTMAGLILGPFGINHGVEIHADVIEYAKEKLDLFVHTSDSFDRFDFCEPSFVAGNCLDIALDCMYDRVYCGAGVQKEHKEYMKNLIKVGGILVLPLEEKLTKITRTGPSSWETKKILAVSFAPLIQPDHVESAKSKSLQLPLPNIRSLQDLSRITIRRHIKKIVNQVPNGRGDGVMKNPPRYKRKRLRRRPLQTVVYLEEGGFACRIQNSFDDNNNCEGAGNCEGAGDDLAEKEEQGVSETKPNPPVNFLREKILCLPLPVPLKYYLLYYREK	soluble
